US20250043002A1 (Regeneron, published 2025)

B1: REGN6194 (bispecific antibody, human IgG4 S228P, kappa)
heavy 1: QVQLVQSGTEVKKPGASVKVSCKASGYTFTAYYMHWVRQAPGQGLDWMGWISPNSGFTNYAQKFQGRVTMTRDTSINTFYMELSGLRSDDTAVYYCAREGSTHHNSFDPWGQGTLVTVSSASTKGPSVFPLAPCSRSTSESTAALGCLVKDYFPEPVTVSWNSGALTSGVHTFPAVLQSSGLYSLSSVVTVPSSSLGTKTYTCNVDHKPSNTKVDKRVESKYGPPCPPCPAPPVAGPSVFLFPPKPKDTLMISRTPEVTCVVVDVSQEDPEVQFNWYVDGVEVHNAKTKPREEQFNSTYRVVSVLTVLHQDWLNGKEYKCKVSNKGLPSSIEKTISKAKGQPREPQVYTLPPSQEEMTKNQVSLTCLVKGFYPSDIAVEWESNGQPENNYKTTPPVLDSDGSFFLYSRLTVDKSRWQEGNVFSCSVMHEALHNHYTQKSLSLSLGK
heavy 2: QVQLQESGPGLVKPSETLSLTCTVSGGSISSYYWSWIRQPPGKGLEWIGYIYYSGITHYNPSLKSRVTISVDTSKIQFSLKLSSVTAADTAVYYCARWGVRRDYYYYGMDVWGQGTTVTVSSASTKGPSVFPLAPCSRSTSESTAALGCLVKDYFPEPVTVSWNSGALTSGVHTFPAVLQSSGLYSLSSVVTVPSSSLGTKTYTCNVDHKPSNTKVDKRVESKYGPPCPPCPAPPVAGPSVFLFPPKPKDTLMISRTPEVTCVVVDVSQEDPEVQFNWYVDGVEVHNAKTKPREEQFNSTYRVVSVLTVLHQDWLNGKEYKCKVSNKGLPSSIEKTISKAKGQPREPQVYTLPPSQEEMTKNQVSLTCLVKGFYPSDIAVEWESNGQPENNYKTTPPVLDSDGSFFLYSRLTVDKSRWQEGNVFSCSVMHEALHNRFTQKSLSLSPGK
light: not shown
notes: also called PD-L1×CD28; anti-PD-L1 × anti-CD28 bispecific antibody
B2: mAb14226 (antibody, V domains shown)
VH: QVQLQESGPGLVKPSETLSLTCTVSGGSISSYYWSWIRQPPGKGLEWIGYIYYSGITHYNPSLKSRVTISVDTSKIQFSLKLSSVTAADTAVYYCARWGVRRDYYYYGMDVWGQGTTVTVSS
VL: not shown
notes: Bivalent parental antibody; also called parental bivalent anti-CD28 antibody; CD28 bivalent control antibody

Columns and labels:
[1] = molecular target: T1, human CD28 on cells (endogenous on Jurkat/NFkB-Luc cells; human primary CD4+ T cells) (human, UniProt P10747 19-220); assay: cell-based or functional assay
[2] = molecular target: T1, human CD28 on cells (endogenous on …); assay: cell-based or functional assay; remark: listed apart in the source
[3] = molecular target: T1, human CD28 on cells (endogenous on …); assay: flow cytometry, Jurkat/NFkB-Luc cells (endogenous CD28)
[4] = molecular target: human CD28 expressed with a C-terminal murine Fc tag (hCD28.mFc) (human); assay: SPR Biacore 25 C, hCD28.mFc captured by anti-mFc, antibody injected

Binder	NFkB-luciferase EC50, Jurkat/NFkB-Luc + HEK293/hCD20/hPSMA/hPD-L1 + CD20×CD3 [1]	NFkB-luciferase MAX (RLU), Jurkat/NFkB-Luc + HEK293/hCD20/hPSMA [1]	NFkB-luciferase MAX (RLU), Jurkat/NFkB-Luc + HEK293/hCD20/hPSMA + CD20×CD3 [1]	NFkB-luciferase MAX (RLU), Jurkat/NFkB-Luc + HEK293/hCD20/hPSMA/hPD-L1 [1]	NFkB-luciferase MAX (RLU), Jurkat/NFkB-Luc + HEK293/hCD20/hPSMA/hPD-L1 + CD20×CD3 [1]	IL2 release MAX (RLU), CD4+ T cells + HEK293/hCD20/hPSMA [2]	IL2 release MAX (RLU), CD4+ T cells + HEK293/hCD20/hPSMA + CD20×CD3 [2]	IL2 release MAX (RLU), CD4+ T cells + HEK293/hCD20/hPSMA/hPD-L1 [2]	IL2 release MAX (RLU), CD4+ T cells + HEK293/hCD20/hPSMA/hPD-L1 + CD20×CD3 [2]	EC50 [3]	Fold Change (max MFI over secondary antibody alone) [3]	Max gMFI [3]	other results
B1	28 pM	11400 RLU	425000 RLU	16700 RLU	3.6e+06 RLU	5480 RLU	33700 RLU	2870 RLU	165000 RLU	7.5 nM	90.4 fold	28000 gMFI	90 nM mAb Bind (RU) [4]: 39.4 RU; Kd [4]: 24.5 nM; koff [4]: 0.00326 s⁻¹; kon [4]: 133000 M⁻¹ s⁻¹; t1/2 [4]: 3.5 min
B2	87.5 pM	73200 RLU	649000 RLU	60800 RLU	596000 RLU	2910 RLU	64400 RLU	2860 RLU	38800 RLU	0.73 nM	101 fold	43000 gMFI	NFkB-luciferase EC50, Jurkat/NFkB-Luc + HEK293/hCD20/hPSMA [1]: 5.69 nM; NFkB-luciferase EC50, Jurkat/NFkB-Luc + HEK293/hCD20/hPSMA + CD20×CD3 [1]: 51.4 pM; IL2 release EC50, CD4+ T cells + HEK293/hCD20/hPSMA + CD20×CD3 [2]: 116 pM; IL2 release EC50, CD4+ T cells + HEK293/hCD20/hPSMA/hPD-L1 + CD20×CD3 [2]: 2.67 nM
